# Patent publication US6489128
# Several values for one entry are separate records, joined by “and”; a condition that tells them apart may be missing. Equal values may be shown once.
# Target: trypsin
# Test: cell-based or functional assay
substance,measurement,value
"inter-alpha trypsin inhibitor (ITI), native complex of light chain and heavy chain, affinity purified from human serum (from UniProt P19823 55-702)",inhibition of trypsin hydrolysis of P-toluenesulphonyl-L-arginine methyl ester (TAME),5 µg and 10 µg
